Test results as given in publication PMC4667285, “Octameric structure of Staphylococcus aureus enolase in complex with phosphoenolpyruvate” (Acta Crystallographica Section D: Biological Crystallography, 2015).

Tests used:
Sa_enolase (octamer) = target: T1, Sa_enolase (octamer) (Staphylococcus aureus, UniProt O69174); test: isothermal titration calorimetry; type: binding
T1 construct: gene eno; C-terminal hexahistidine tag, pET-24a, E. coli BL21(DE3); residues 1-434 described; octamer fraction separated from dimer by size-exclusion chromatography

[1] = test system: O=C(O)[C@@H](CO)OP(=O)(O)O; test: purified protein; conditions: octamer, room temperature, 20 mM IMD–HCl, 400 mM KCl, 1 mM magnesium acetate pH 7.0
[2] = target: Sa_enolase D355A mutant (Staphylococcus aureus) (UniProt Q2G028); test: SEC
[3] = target: Sa_enolase F139A mutant (Staphylococcus aureus) (UniProt Q2G028); test: SEC
[4] = target: Sa_enolase G138A mutant (Staphylococcus aureus) (UniProt Q2G028); test: SEC
[5] = target: Sa_enolase Y135A mutant (Staphylococcus aureus) (UniProt Q2G028); test: SEC
[6] = target: Staphylococcus aureus enolase, wild type (Staphylococcus aureus) (UniProt Q2G028); test: crystal structure; PEP-bound Sa_enolase, 1.6 Å, space group I4, co-crystallised with 2-PG (1:10); 0.2 M ammonium acetate, 0.1 M Tris-HCl pH 8.5, 25% PEG 3350, 16°C
[7] = target: Staphylococcus aureus enolase, wild type (Staphylococcus aureus) (UniProt Q2G028); test: crystal structure; non-ligand-bound Sa_enolase, 2.45 Å, space group P42(1)2, a homodimer in the asymmetric unit, octamer by fourfold crystallographic symmetry; 0.01 M cobalt(II) chloride, 0.1 M MES pH 6.5, 1.8 M ammonium sulfate, 16°C

O=C(O)[C@@H](CO)OP(=O)(O)O [2-PG]
Kd (Sa_enolase (octamer)): 15 ± 2.6 µM

Sa_enolase (octamer) (Staphylococcus aureus)
Km [1]: 0.365 ± 0.030 × 10^−3 M | Vmax [1]: 74.8 µM/min | kcat [1]: 83 s⁻¹ | kcat/Km [1]: 227000 M⁻¹ s⁻¹

Sa_enolase D355A mutant (from UniProt Q2G028) (enzyme)
stoichiometry N [2]: 2

Sa_enolase F139A mutant (from UniProt Q2G028) (enzyme)
stoichiometry N [3]: 2

Sa_enolase G138A mutant (from UniProt Q2G028) (enzyme)
stoichiometry N [4]: 2

Sa_enolase Y135A mutant (from UniProt Q2G028) (enzyme)
stoichiometry N [5]: 2

Staphylococcus aureus enolase, wild type (from UniProt Q2G028) (enzyme)
stoichiometry N [6]: 8 | stoichiometry N [7]: 8
